{"source": "patent US20240327522A1", "about": "(Genentech, published 2024)", "key": {"[1]": {"target": "T1, recombinant human αvβ8 protein (PARS-17102) (human)", "T1 construct": "also called hu.aVb8.17102; not shown: C-terminal acid/basic coils and any purification tags", "T1 alpha": "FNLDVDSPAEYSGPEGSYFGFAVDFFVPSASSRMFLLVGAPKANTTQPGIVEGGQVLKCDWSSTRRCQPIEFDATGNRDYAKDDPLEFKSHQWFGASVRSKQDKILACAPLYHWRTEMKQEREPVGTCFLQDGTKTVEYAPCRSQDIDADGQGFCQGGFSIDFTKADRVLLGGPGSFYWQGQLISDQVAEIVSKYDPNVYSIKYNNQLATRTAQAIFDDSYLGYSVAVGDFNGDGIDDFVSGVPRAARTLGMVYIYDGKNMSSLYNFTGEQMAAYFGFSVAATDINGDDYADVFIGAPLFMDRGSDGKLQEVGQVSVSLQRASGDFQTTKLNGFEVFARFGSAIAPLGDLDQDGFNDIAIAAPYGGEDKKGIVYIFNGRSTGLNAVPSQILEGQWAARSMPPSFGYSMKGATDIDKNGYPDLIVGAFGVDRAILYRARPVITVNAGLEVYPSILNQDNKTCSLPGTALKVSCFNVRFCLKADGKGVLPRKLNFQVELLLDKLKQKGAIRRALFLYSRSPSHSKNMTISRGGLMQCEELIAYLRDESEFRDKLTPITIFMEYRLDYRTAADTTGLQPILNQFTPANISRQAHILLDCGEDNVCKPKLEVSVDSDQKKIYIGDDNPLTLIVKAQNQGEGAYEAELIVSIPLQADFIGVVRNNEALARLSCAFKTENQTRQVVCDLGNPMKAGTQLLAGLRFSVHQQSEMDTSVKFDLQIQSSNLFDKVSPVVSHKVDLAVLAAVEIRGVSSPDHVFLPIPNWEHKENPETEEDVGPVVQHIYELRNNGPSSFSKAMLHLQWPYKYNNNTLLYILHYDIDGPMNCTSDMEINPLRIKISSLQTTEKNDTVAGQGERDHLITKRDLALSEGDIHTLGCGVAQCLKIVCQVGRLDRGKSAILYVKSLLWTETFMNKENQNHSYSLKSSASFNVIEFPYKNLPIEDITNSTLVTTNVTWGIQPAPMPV", "T1 beta": "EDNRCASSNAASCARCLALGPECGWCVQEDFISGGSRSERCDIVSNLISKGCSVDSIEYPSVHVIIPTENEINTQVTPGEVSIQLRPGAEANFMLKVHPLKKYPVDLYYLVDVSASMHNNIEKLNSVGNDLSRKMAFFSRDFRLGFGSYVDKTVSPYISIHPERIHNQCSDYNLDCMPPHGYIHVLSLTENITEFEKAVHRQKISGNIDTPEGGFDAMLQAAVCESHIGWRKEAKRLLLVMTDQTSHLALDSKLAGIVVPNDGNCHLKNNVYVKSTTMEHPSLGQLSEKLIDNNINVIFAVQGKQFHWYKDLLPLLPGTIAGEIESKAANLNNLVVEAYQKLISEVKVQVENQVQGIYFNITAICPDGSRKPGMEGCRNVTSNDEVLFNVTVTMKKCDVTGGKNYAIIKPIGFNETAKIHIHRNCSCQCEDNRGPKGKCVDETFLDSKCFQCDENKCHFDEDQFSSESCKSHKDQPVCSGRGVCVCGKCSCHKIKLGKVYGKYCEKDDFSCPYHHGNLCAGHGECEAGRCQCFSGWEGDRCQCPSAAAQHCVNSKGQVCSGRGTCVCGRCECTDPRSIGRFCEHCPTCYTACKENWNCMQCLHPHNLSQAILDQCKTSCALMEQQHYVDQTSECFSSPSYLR", "experiment": "SPR, Biacore T200, Protein A capture, human αvβ8 analyte 0-100 nM, 37 C, 1:1 model (comparison with hC6D4, FIG. 9A)", "description": "(§1) The antibodies were first captured either on a Biacore™ Protein A biosensor chip (Cytiva Life Sciences) or on an anti-murine Fc chip to achieve approximately 60 response units. Binding measurements were performed using a running buffer composed of 10 mM HEPES (pH 7.4), 150 mM NaCl, 0.5 mM CaCl₂), and 0.005% Surfactant P20 (Cytiva Life Sciences). For comparison between αvβ8-65 and hC6D4, a 5-fold dilution series of human αvβ8 (range, 0-100 nM in running buffer) was injected into the Biacore™ T200. For comparison between αvβ8-65 and hADWA11-2.4, a 5-fold dilution series of human αvβ8 (range, 0-100 nM in running buffer) was injected. For comparison of all three antibodies in the murine Fc format, a 5-fold dilution series of human αvβ8 (range, 0-50 nM in running buffer) was injected. All injections were performed over 180 seconds, with a dissociation time of 1200 seconds, at a flow rate of 100 μL/minute and a temperature of 37° C. Between sample injections, a regeneration reagent (10 mM glycine pH 1.5 for protein A chip; 10 mM glycine pH 1.7 for anti-murine Fc chip) was injected to regenerate the sensor chip (twice, over 30 seconds at 10 μL/minute for each injection). To determine the binding kinetics and affinity constants of the antibodies to human αvβ8 protein, the signal from the reference flow cell (FC1, with only protein A on the surface) was “double referenced” by subtracting the signal observed after injecting the sample over FC1, followed by subtracting the signal observed after injecting only running buffer. The kinetic constants were calculated using nonlinear regression fitting of the data, according to a 1:1 Langmuir binding model, using Biacore™ Evaluation Software (Cytiva Life Sciences).\n(§2) The values of the kinetic constants kon, koff, and KD for the binding of αvβ8-65, hC6D4 and ADWA11-2.4 to the various species of αvβ8 proteins are summarized in Table 13. A 1:1 Langmuir binding model was used to determine the KD values. The sensograms observed for the bindings of the various αvβ8 proteins to the captured antibody are shown in FIG. 9A, FIG. 9B, and FIG. 10."}, "[2]": {"target": "T1, recombinant human αvβ8 protein …", "experiment": "SPR, Biacore T200, Protein A capture, human αvβ8 analyte 0-100 nM, 37 C, 1:1 model (comparison with hADWA11-2.4, FIG. 9B)", "description": "as §1, §2"}}, "data": [{"binder": "Hu.aVb8-65.H15L2 (aVb8-65.H15L2.hIgG1.LALAPG) (antibody, V domains shown, Human IgG1 LALAPG; also called PARS-20475-65 (IH) aVb8-65.H15L2.hIgG1.LALAPG; humanized αvβ8-65) VH: EVQLLESGGGLVQPGGSLRLSCAASGIDLSNYAMIWVRQAPGKGLEWVGIISSSDRIWYASWVKGRFTISRDNSKNTLYLQMNSLRAEDTAVYYCSRSVSNSYFDGWNLWGQGTLVTVSS VL: DIQMTQSPSSVSASVGDRVTITCQASENINSLLAWYQQKPGKAPKLLIYRASTLASGVPSRFSGSGSGTDFTLTISSLQPEDFATYYCQSNYGFTGSGAFFYGFGQGTKVEIKR", "values": [{"measurement": "Kd", "setting": "[1]", "value": 1.01, "unit": "nM"}, {"measurement": "koff", "setting": "[1]", "value": 0.000169, "unit": "s⁻¹"}, {"measurement": "kon", "setting": "[1]", "value": 168000, "unit": "M⁻¹ s⁻¹"}, {"measurement": "Kd", "setting": "[2]", "value": 0.528, "unit": "nM"}, {"measurement": "koff", "setting": "[2]", "value": "9.58e-05", "unit": "s⁻¹"}, {"measurement": "kon", "setting": "[2]", "value": 181000, "unit": "M⁻¹ s⁻¹"}]}]}
